Consider 1 molecule from paper PMC9968394.

Assay in all cases: SPR; Biacore; anti-OGT VNARs diluted to 100 nM; recombinant ncOGT in PBS at 50, 100, 200, 400 and 800 nM introduced successively; binding 120 s, dissociation 200 s in PBS; Langmuir model fit; who was immobilised is not said
For orientation: Surface plasmon resonance follows binding to a sensor surface in real time, without labels.

For experiment [1], the target named is anti-OGT VNAR 3F7 (Chiloscyllium plagiosum (whitespotted bambooshark)).
For experiment [2], the target named is anti-OGT VNAR 4G2 (Chiloscyllium plagiosum (whitespotted bambooshark)).
Experiment [3] addresses anti-OGT VNAR 2D9 (Chiloscyllium plagiosum (whitespotted bambooshark)).

B1: recombinant ncOGT protein (O-GlcNAc transferase) (enzyme)
chain: MASSVGNVADSTEPTKRMLSFQGLAELAHREYQAGDFEAAERHCMQLWRQEPDNTGVLLLLSSIHFQCRRLDRSAHFSTLAIKQNPLLAEAYSNLGNVYKERGQLQEAIEHYRHALRLKPDFIDGYINLAAALVAAGDMEGAVQAYVSALQYNPDLYCVRSDLGNLLKALGRLEEAKACYLKAIETQPNFAVAWSNLGCVFNAQGEIWLAIHHFEKAVTLDPNFLDAYINLGNVLKEARIFDRAVAAYLRALSLSPNHAVVHGNLACVYYEQGLIDLAIDTYRRAIELQPHFPDAYCNLANALKEKGSVAEAEDCYNTALRLCPTHADSLNNLANIKREQGNIEEAVRLYRKALEVFPEFAAAHSNLASVLQQQGKLQEALMHYKEAIRISPTFADAYSNMGNTLKEMQDVQGALQCYTRAIQINPAFADAHSNLASIHKDSGNIPEAIASYRTALKLKPDFPDAYCNLAHCLQIVCDWTDYDERMKKLVSIVADQLEKNRLPSVHPHHSMLYPLSHGFRKAIAERHGNLCLDKINVLHKPPYEHPKDLKLSDGRLRVGYVSSDFGNHPTSHLMQSIPGMHNPDKFEVFCYALSPDDGTNFRVKVMAEANHFIDLSQIPCNGKAADRIHQDGIHILVNMNGYTKGARNELFALRPAPIQAMWLGYPGTSGALFMDYIITDQETSPAEVAEQYSEKLAYMPHTFFIGDHANMFPHLKKKAVIDFKSNGHIYDNRIVLNGIDLKAFLDSLPDVKIVKMKCPDGGDNADSSNTALNMPVIPMNTIAEAVIEMINRGQIQITINGFSISNGLATTQINNKAATGEEVPRTIIVTTRSQYGLPEDAIVYCNFNQLYKIDPSTLQMWANILKRVPNSVLWLLRFPAVGEPNIQQYAQNMGLPQNRIIFSPVAPKEEHVRRGQLADVCLDTPLCNGHTTGMDVLWAGTPMVTMPGETLASRVAASQLTCLGCLELIAKNRQEYEDIAVKLGTDLEYLKKVRGKVWKQRISSPLFNTKQYTMELERLYLQMWEHYAAGNKPDHMIKPVEVTESA
On to B1, for which, in experiment [1], the dissociation constant (Kd) worked out at 53.4 nM, the dissociation rate constant (koff) was 0.00106 s⁻¹ and the on-rate constant (kon) worked out at 19800 M⁻¹ s⁻¹. Also, in experiment [2], the dissociation constant (Kd) stood at 89.7 nM and the koff is 0.00076 s⁻¹. In experiment [3], the Kd came out at 35.5 nM, the koff was found to be 0.000675 s⁻¹ and the association rate constant (kon) was found to be 19000 M⁻¹ s⁻¹.

In general, Kd refers to a measure of binding affinity in units of concentration. In general, koff refers to the rate constant with which the complex falls apart. A word on the kon: it is the rate constant with which the complex forms.
